From patent US8524227B2, “Anti-IL-TIF antibodies” (ZymoGenetics, Inc., priority 2002, dated 2013)

Tests used:
IL-TIF = molecular target: T1, IL-TIF (Homo sapiens, UniProt Q9GZX6); assay: Inhibition of IL-TIF-induced proliferation of BaF3/CRF2-4/zcytor11 cells by soluble receptors; assay type: cell-based; settings: 100 pg/ml IL-TIF
T1 sequence (Q9GZX6 13-179 limits assumed): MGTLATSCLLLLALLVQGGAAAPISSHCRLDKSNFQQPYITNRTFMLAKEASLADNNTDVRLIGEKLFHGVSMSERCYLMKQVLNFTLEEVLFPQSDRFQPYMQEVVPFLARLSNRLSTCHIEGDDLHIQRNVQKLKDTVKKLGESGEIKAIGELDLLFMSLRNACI
Experimental: BaF3/CRF2-4/zcytor11 cells described herein were spun down and washed in PBS 2 times to ensure the removal of the mIL-3, and then spun a third time and re-suspended in the complete media (RPMI 1640, 10% FBS, 1% GlutaMAX, 1% Sodium Pyruvate), but without mIL-3 (hereinafter referred to as “mIL-3 free media”). Cells were then counted in a hemocytometer. Cells were plated in a 96-well format at 5000 cells per well in a volume of 100 μl per well using the mIL-3 free media.
IL-TIF protein (SEQ ID NO:3) was diluted to 200 pg/ml in mIL-3 free media. Zcytor16-Fc4 fusion protein (described herein) was diluted to 1 μg/ml in the mIL-3 free/IL-TIF media on the top row of the plate, and then diluted serially 1:2 down the remaining 7 rows on the 96-well plate, leaving a volume of 100 μl in each well. This was then added to the 100 μl of cells, for a final IL-TIF concentration of 100 pg/ml in all wells, and final Zcytor16-Fc4 concentrations of approximately […], 0.016, and 0.008 μg/ml in a total assay volume of 200 μl. CRF2-4/zcytor11-Fc4 was diluted to 8 μg/ml in the mIL-3 free/IL-TIF media on the top row of the plate, and then diluted serially 1:2 down the remaining 7 rows on the 96-well plate, leaving a volume of 100 μl in each well. This was then added to the 100 μl of cells, for a final IL-TIF concentration of 100 pg/ml in all wells, and final CRF2-4/zcytor11-Fc4 concentrations of approximately […], 0.25, 0.125 and 0.063 μg/ml, in a total assay volume of 200 The assay plates were incubated at 37° C., 5% CO2 for 4 days at which time Alamar Blue (Accumed, Chicago, Ill.) was added at […]. Plates were again incubated at 37° C., 5% CO2 for 16 hours. Alamar Blue gives a fluourometric readout based on number of live cells, and is thus a direct measurement of cell proliferation in comparison to a negative control. Plates were read on the Wallac Victor 2 1420 Multilabel Counter (Wallac, Turku, Finland) at wavelengths 530 (Excitation) and 590 (Emmssion). […] IL-TIF alone stimulated the cells 13-fold over background.

[1] = Mouse collagen induced arthritis (CIA) model; assay type: in vivo, mice; settings: for IL-6 levels / SAA concentrations: Day 0 serum 4 hr post 25 μg LPS
Experimental: Ten week old male DBA/1J mice (Jackson Labs) were divided into 3 groups of 13 mice/group. On day-21, animals were given a subcutaneous injection of 50-100 μl of 1 mg/ml chick Type II collagen formulated in Complete Freund's Adjuvant (prepared by Chondrex, Redmond, Wash.), and three weeks later on Day 0 they were given a 100 μl (25 μg) injection of LPS from E. coli 0111:B4, prepared as 250 μg/ml from a lyophilized aliquot (Sigma, St. Louis, Mo.). Zcytor16 was administered as an intraperitoneal injection 3 times a week for 4 weeks, from Day 0 to Day 25. The first two groups received either 100 or 10 μg of zcytor16 per animal per dose, and the third group received the vehicle control, PBS (Life Technologies, Rockville, Md.). Animals began to show symptoms of arthritis following the LPS injection, with most animals developing inflammation within 2-3 weeks. The extent of disease was evaluated in each paw by using a caliper to measure paw thickness, and by assigning a clinical score (0-3) to each paw: 0=Normal, 0.5=Toe(s) inflamed, 1=Mild paw inflammation, 2=Moderate paw inflammation, and 3=Severe paw inflammation as detailed below.
All animals were observed daily to assess the status of the disease in their paws, which was done by assigning a qualitative clinical score to each of the paws. Every day, each animal has its 4 paws scored according to its state of clinical disease. To determine the clinical score, the paw can be thought of as having 3 zones, the toes, the paw itself (manus or pes), and the wrist or ankle joint. The extent and severity of the inflammation relative to these zones was noted including observation all the toes for any joint swelling, torn nails, or redness, notation of any evidence of edema or redness in any of the paws, and notation any loss of fine anatomic demarcation of tendons or bones, and evaluation the wrist or ankle for any edema or redness, and notation if the inflammation extends proximally up the leg. A paw a score of 1, 2, or 3 was based first on the overall impression of severity, and second on how many zones were involved. The scale used for clinical scoring is shown below.
Blood was collected throughout the experiment to monitor serum levels of anti-collagen antibodies. Animals were euthanized on Day 21, and blood was collected for serum and for CBC's. From each animal, one affected paw was collected in 10% NBF for histology and one was frozen in liquid nitrogen and stored at […] for mRNA analysis. Also, ½ spleen, ½ thymus, ½ mesenteric lymph node, one liver lobe and the left kidney were collected in RNAlater for RNA analysis, and ½ spleen, ½ thymus, ½ mesenteric lymph node, the remaining liver, and the right kidney were collected in 10% NBF for histology. Serum was collected and frozen at −80° C. for immunoglobulin and cytokine assays.
Approximately 100 μL of peripheral blood was collected by retro-orbital bleed into serum separator tubes (Becton Dickinson). Serum was collected by centrifugation (2-3 min, 16,000×g, 4-6° C.) and stored at −20° C. until analyzed. To determine anti-collagen Ig antibody levels, NUNC plates were coated with 10 μg/mL chick type-II collagen (Chondrex, Redmond Wash.) and incubated overnight at 4° C. Plates were washed with ELISA C, blocked (5 minutes, room temperature) with Super Block (Pierce, Rockford, Ill.), and washed with ELISA C. Diluted serum samples (diluted in ELISA B 5-fold from 1:5000 to 1:625,000) were added to ELISA plates in triplicate and the plates were incubated overnight at 4° C. After incubation, the plates were washed with ELISA C, and peroxidase-labeled goat anti-mouse Ig Fc (Zymed, 1:2000 in ELISA B) was added. The plates were incubated (room temperature, 90 minutes), rinsed again using ELISA C, and HRP activity was developed using o-phenylenediamine dihydrochloride substrate (10 mL NovoD+1 tablet OPD+10 μL H2O2, Pierce). The reaction was stopped with 1N H2SO4. […]

B1: zcytor16-Fc4: soluble receptor for IL-TIF, zcytor16 fused to Fc4; IL-TIF antagonist (protein)
chain: TQSTHESLKPQRVQFQSRNFHNILQWQPGRALTGNSSVYFVQYKIYGQRQWKNKEDCWGTQELSCDLTSETSDIQEPYYGRVRAASAGSYSEWSMTPRFTPWWETKIDPPVMNITQVNGSLLVILHAPNLPYRYQKEKNVSIEDYYELLYRVFIINNSLEKEQKVYEGAHRAVEIEALTPHSSYCVVAEIYQPMLDRRSQRSEERCVEIPEPRSSDKTHTCPPCPAPEAEGAPSVFLFPPKPKDTLMISRTPEVTCVVVDVSHEDPEVKFNWYVDGVEVHNAKTKPREEQYNSTYRVVSVLTVLHQDWLNGKEYKCKVSNKALPSSIEKTISKAKGQPREPQVYTLPPSRDELTKNQVSLTCLVKGFYPSDIAVEWESNGQPENNYKTTPPVLDSDGSFFLYSKLTVDKSRWQQGNVFSCSVMHEALHNHYTQKSLSLSPGK
IL-TIF
  concentrations completely inhibiting proliferation: 0.025 to 1 µg/mL
  concentrations partially inhibiting proliferation, lower end: ≥ 8 ng/mL
  inhibition of the proliferative effect of IL-TIF: strong dose-dependant inhibition
[1]; 10 μg three times a week for 4 weeks
  disease score (paw score, incident of inflammation or disease): significantly reduced the disease score
[1]; 10 μg zcytor16
  IL-6 levels: 10,865+/−1478 pg/ml
  SAA concentrations: 348 ± 37 µg/mL
[1]; 100 μg or 10 μg groups vs PBS, serum ELISA
  levels of anti-collagen antibodies: no statistically significant effects
[1]; 100 μg zcytor16
  IL-6 levels: 9651 ± 1563 pg/mL
  SAA concentrations: 381 ± 40 µg/mL
[1]; 100 or 10 μg IP 3 times a week for 4 weeks vs PBS
  paw scores and measurements: No statistically significant differences
[1]; 100 or 10 μg IP vs PBS
  changes in body weight, CBC parameters, or anti-collagen antibody levels: no significant differences
